{"source": "patent US20250296986A1", "key": {"human FcγRIIb (human)": {"molecular_target": "human FcγRIIb (human) (UniProt P31994)", "sequence (P31994 43-217 limits assumed)": "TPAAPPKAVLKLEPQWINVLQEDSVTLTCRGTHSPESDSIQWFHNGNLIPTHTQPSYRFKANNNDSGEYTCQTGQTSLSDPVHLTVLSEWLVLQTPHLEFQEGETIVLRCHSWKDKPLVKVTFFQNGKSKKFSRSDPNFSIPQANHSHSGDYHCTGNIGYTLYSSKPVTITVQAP", "assay": "compared with fucosylated wild-type human IgG1; MSD per FIGS. 10A-10C"}, "[1]": {"molecular_target": "human FcγRIIa (R131 allele) (human) (UniProt P12318)", "sequence (P12318 34-218 H167R limits assumed)": "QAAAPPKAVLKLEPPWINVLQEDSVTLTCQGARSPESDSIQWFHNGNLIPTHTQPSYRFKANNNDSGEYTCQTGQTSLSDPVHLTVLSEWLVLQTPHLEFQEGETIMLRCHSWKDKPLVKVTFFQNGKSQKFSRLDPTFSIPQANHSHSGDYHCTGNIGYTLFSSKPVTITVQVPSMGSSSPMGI", "assay": "compared with fucosylated wild-type human IgG1; MSD per FIGS. 10A-10C"}, "[2]": {"molecular_target": "human FcγRIIa (H131 allele) (human) (UniProt P12318)", "sequence (P12318 34-218 limits assumed)": "as the sequence (P12318 34-218 H167R limits assumed) above, with R134H counted along it", "assay": "compared with fucosylated wild-type human IgG1; MSD per FIGS. 10A-10C"}, "human C1q (human)": {"molecular_target": "human C1q (human) (UniProt P02745)", "sequence (P02745 23-245 limits assumed, chain 1 of 3)": "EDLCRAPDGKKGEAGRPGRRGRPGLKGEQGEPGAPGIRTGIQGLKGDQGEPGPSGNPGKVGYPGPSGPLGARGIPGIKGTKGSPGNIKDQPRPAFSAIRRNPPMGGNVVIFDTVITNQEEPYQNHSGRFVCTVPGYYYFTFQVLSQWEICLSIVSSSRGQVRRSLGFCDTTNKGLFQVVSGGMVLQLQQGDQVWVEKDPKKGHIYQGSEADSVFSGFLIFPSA", "sequence (P02746 28-253 limits assumed, chain 2 of 3, further chain)": "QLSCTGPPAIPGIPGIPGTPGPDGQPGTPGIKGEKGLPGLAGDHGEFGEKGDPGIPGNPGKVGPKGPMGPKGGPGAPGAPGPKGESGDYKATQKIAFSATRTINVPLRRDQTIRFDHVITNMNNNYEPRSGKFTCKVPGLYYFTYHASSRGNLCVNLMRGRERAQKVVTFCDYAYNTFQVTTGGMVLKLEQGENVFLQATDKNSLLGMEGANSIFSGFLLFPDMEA", "sequence (P02747 29-245 limits assumed, chain 3 of 3, further chain)": "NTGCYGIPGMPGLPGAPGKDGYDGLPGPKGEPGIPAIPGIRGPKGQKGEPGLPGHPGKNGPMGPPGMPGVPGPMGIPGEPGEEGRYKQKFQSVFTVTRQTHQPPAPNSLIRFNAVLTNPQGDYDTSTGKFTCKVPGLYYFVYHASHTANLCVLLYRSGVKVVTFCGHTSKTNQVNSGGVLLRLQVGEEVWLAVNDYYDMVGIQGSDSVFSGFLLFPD", "assay": "C1q binding assay (FIG. 15: antibody Fc captured on Octet sensor, human C1q in solution)"}}}
{"substance": "G236A_R292P (antibody)", "values": [{"measurement": "fold-change in binding vs fucosylated wild-type human IgG1", "setting": "human FcγRIIb (human)", "value": "< 0.5", "unit": "fold"}]}
{"substance": "G236A_R292P_Y300L (antibody)", "values": [{"measurement": "fold-change in binding vs fucosylated wild-type human IgG1", "setting": "[1]", "value": "> 2.7", "unit": "fold"}, {"measurement": "fold-change in binding vs fucosylated wild-type human IgG1", "setting": "[2]", "value": "> 14", "unit": "fold"}]}
{"substance": "G236A_Y300L (antibody)", "values": [{"measurement": "fold-change in binding vs fucosylated wild-type human IgG1", "setting": "[1]", "value": "> 4", "unit": "fold"}, {"measurement": "fold-change in binding vs fucosylated wild-type human IgG1", "setting": "[2]", "value": "> 18", "unit": "fold"}]}
{"substance": "G236S_G420V_G446E_L309T (antibody)", "values": [{"measurement": "fold-change in binding vs fucosylated wild-type human IgG1", "setting": "human FcγRIIb (human)", "value": "< 0.5", "unit": "fold"}]}
{"substance": "afucosylated Fc variant antibodies bearing the G236A (\"GA\") mutation (antibody)", "values": [{"measurement": "C1q binding relative to reference IgG1 antibody bearing M428L and N434S mutations only", "setting": "human C1q (human)", "value": "0.3 fold (×)"}]}
